Consider eight molecules from publication PMC10397247.

Where two headings read alike, the source gives them in different places.

One assay has as its target T1, 4H370-bH.
T1 chain: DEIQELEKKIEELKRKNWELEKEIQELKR
Kind of assay: two-hybrid library CCNG1.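 Further: natural log of median RNA to DNA barcode read ratio; higher means stronger binding.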

For the next assay, the target named is T2, 4H3782-bH.
T2 chain: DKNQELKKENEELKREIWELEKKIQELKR
As to the kind of experiment: two-hybrid library CCNG1.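 Further: natural log of median RNA to DNA barcode read ratio; higher means stronger binding.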

A further assay concerns the target T3, 4H3843-bH.
T3 chain: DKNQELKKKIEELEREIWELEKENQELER
As to the kind of experiment: two-hybrid library CCNG1.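 Further: natural log of median RNA to DNA barcode read ratio; higher means stronger binding.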

The target in another assay is T4, 4H4001-bH.
T4 chain: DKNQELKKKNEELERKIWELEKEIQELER
Kind of assay: two-hybrid library CCNG1.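 Further: natural log of median RNA to DNA barcode read ratio; higher means stronger binding.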

For the next assay, the target named is T5, 4H462-bH.
T5 chain: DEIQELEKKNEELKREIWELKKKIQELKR
As to the kind of experiment: two-hybrid library CCNG1.

Another assay concerns the target T6, 4H568-bH.
T6 chain: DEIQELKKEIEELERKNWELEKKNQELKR
As to the kind of experiment: two-hybrid library CCNG1.

The next assay concerns the target T7, 4H607-bH.
T7 chain: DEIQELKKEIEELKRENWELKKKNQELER
As to the kind of experiment: two-hybrid library CCNG1.

A further assay concerns the target T8, 4H687-bA.
T8 chain: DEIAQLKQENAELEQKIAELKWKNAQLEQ
Kind of assay: two-hybrid library CCNG1.

A further assay addresses T9, 4H687-bH.
T9 chain: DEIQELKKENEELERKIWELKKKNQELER
Kind of assay: two-hybrid library CCNG1.

The target in another assay is T10, 4H72-bH.
T10 chain: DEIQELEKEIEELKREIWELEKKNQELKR
As to the kind of experiment: two-hybrid library CCNG1.

For a further assay, the target named is T11, 4H797-bH.
T11 chain: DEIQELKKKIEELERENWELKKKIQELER
As to the kind of experiment: two-hybrid library CCNG1.

In a further assay the target is T12, 4H883-bH.
T12 chain: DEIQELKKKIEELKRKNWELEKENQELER
Kind of assay: two-hybrid library CCNG1.

For another assay, the target named is T13, 4H918-bH.
T13 chain: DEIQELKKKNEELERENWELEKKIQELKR
As to the kind of experiment: two-hybrid library CCNG1.

The next assay concerns the target T14, 4H953-bH.
T14 chain: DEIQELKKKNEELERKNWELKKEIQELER
As to the kind of experiment: two-hybrid library CCNG1.

The target of a further assay is T15, 4H967-bH.
T15 chain: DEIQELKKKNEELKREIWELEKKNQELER
Kind of assay: two-hybrid library CCNG1.

In a further assay the target is T16, O7-bS.
T16 chain: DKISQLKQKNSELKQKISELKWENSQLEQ
As to the kind of experiment: two-hybrid library CCNG1.

The next assay has as its target T17, O8-bS.
T17 chain: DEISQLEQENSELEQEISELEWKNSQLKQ
Kind of assay: two-hybrid library CCNG1.

The target in a further assay is T18, O9-bS.
T18 chain: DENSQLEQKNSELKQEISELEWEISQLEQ
Kind of assay: two-hybrid library CCNG1.

Another assay concerns the target T19, 4H3297-bH.
T19 chain: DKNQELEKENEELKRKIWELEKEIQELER
As to the kind of experiment: two-hybrid library CCNG1.

The target of a further assay is T20, 4H3364-bH.
T20 chain: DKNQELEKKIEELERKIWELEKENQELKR
As to the kind of experiment: two-hybrid library CCNG1.

For another assay, the target named is T21, 4H3381-bH.
T21 chain: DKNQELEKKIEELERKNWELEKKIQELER
As to the kind of experiment: two-hybrid library CCNG1.

Another assay concerns the target T22, 4H349-bH.
T22 chain: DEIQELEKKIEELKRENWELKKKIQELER
Kind of assay: two-hybrid library CCNG1.

A further assay addresses T23, 4H56-bH.
T23 chain: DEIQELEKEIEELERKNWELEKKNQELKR
Kind of assay: two-hybrid library CCNG1.

A further assay deals with T24, 4H730-bH.
T24 chain: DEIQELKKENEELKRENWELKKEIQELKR
As to the kind of experiment: two-hybrid library CCNG1.

A further assay concerns the target T25, 4H796-bH.
T25 chain: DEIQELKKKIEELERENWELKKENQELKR
As to the kind of experiment: two-hybrid library CCNG1.

A further assay deals with T26, 4H932-bH.
T26 chain: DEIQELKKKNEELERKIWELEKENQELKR
Kind of assay: two-hybrid library CCNG1.

A further assay deals with T27, 4H949-bH.
T27 chain: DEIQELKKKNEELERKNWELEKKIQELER
As to the kind of experiment: two-hybrid library CCNG1.

Another assay concerns the target T28, O7.
T28 chain: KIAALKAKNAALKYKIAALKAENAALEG
As to the kind of experiment: two-hybrid library CC0. To be noted: mean of both orientations.

The target in another assay is T29, O8.
T29 chain: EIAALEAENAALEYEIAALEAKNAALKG
Kind of assay: two-hybrid library CC0. To be noted: mean of both orientations.

The target of another assay is T30, O9.
T30 chain: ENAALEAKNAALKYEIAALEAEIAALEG
Kind of assay: two-hybrid library CC0. To be noted: mean of both orientations.

The target in a further assay is T31, P10-AA.
T31 chain: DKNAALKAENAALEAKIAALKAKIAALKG
Kind of assay: two-hybrid library CCmax.

Another assay addresses T32, P11-AA.
T32 chain: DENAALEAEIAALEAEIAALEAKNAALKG
As to the kind of experiment: two-hybrid library CCmax.

A further assay addresses T33, P12-AA.
T33 chain: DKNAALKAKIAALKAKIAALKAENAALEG
Kind of assay: two-hybrid library CCmax.

A further assay deals with T34, P2-AA.
T34 chain: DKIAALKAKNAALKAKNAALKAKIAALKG
Kind of assay: two-hybrid library CCmax. Particulars: mean of both orientations.

The next assay deals with T35, P3-AA.
T35 chain: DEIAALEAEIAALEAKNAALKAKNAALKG
Kind of assay: two-hybrid library CCmax. To be noted: mean of both orientations.

A further assay concerns the target T36, P4-AA.
T36 chain: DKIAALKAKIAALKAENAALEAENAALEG
As to the kind of experiment: two-hybrid library CCmax. To be noted: mean of both orientations.

The target in another assay is T37, P7-AA.
T37 chain: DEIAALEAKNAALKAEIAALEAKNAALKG
As to the kind of experiment: two-hybrid library CCmax. To be noted: mean of both orientations.

A further assay concerns the target T38, P8-AA.
T38 chain: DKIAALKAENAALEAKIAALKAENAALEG
As to the kind of experiment: two-hybrid library CCmax. To be noted: mean of both orientations.

The next assay addresses T39, P9-AA.
T39 chain: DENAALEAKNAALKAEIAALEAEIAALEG
Kind of assay: two-hybrid library CCmax. To be noted: mean of both orientations.

Another assay deals with T40, zCON9_A.
T40 chain: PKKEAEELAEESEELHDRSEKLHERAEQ
As to the kind of experiment: two-hybrid library CCmax.

For the next assay, the target named is T41, zCON9_B.
T41 chain: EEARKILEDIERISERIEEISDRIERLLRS
Kind of assay: two-hybrid library CCmax. To be noted: mean of both orientations.

For another assay, the target named is T42, zCON9_D.
T42 chain: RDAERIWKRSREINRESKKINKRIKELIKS
Kind of assay: two-hybrid library CCmax.

In the next assay the target is T43, 4H346-bA.
T43 chain: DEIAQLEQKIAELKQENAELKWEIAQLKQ
Kind of assay: two-hybrid library CCNG1.

The next assay concerns the target T44, 4H3926-bA.
T44 chain: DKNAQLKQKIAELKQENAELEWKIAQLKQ
Kind of assay: two-hybrid library CCNG1.

The target of another assay is T45, 4H4073-bA.
T45 chain: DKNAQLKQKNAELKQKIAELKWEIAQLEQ
Kind of assay: two-hybrid library CCNG1.

Another assay addresses T46, 4H457-bA.
T46 chain: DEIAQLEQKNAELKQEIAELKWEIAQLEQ
As to the kind of experiment: two-hybrid library CCNG1.

The next assay addresses T47, 4H575-bA.
T47 chain: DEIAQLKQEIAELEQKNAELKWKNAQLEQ
As to the kind of experiment: two-hybrid library CCNG1.

A further assay has as its target T48, 4H683-bA.
T48 chain: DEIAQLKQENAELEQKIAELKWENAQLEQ
Kind of assay: two-hybrid library CCNG1.

A further assay deals with T49, 4H754-bA.
T49 chain: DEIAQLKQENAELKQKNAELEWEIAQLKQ
Kind of assay: two-hybrid library CCNG1.

The target of a further assay is T50, 4H780-bA.
T50 chain: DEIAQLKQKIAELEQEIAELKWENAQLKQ
As to the kind of experiment: two-hybrid library CCNG1.

The next assay deals with T51, 4H797-bA.
T51 chain: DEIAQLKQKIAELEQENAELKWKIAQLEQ
As to the kind of experiment: two-hybrid library CCNG1.

A further assay addresses T52, 4H855-bA.
T52 chain: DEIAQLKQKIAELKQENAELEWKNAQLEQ
As to the kind of experiment: two-hybrid library CCNG1.

Another assay has as its target T53, 4H918-bA.
T53 chain: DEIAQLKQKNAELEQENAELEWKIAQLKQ
Kind of assay: two-hybrid library CCNG1.

The target of another assay is T54, 4H953-bA.
T54 chain: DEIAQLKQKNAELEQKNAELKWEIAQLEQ
As to the kind of experiment: two-hybrid library CCNG1.

The target of another assay is T55, 4H968-bA.
T55 chain: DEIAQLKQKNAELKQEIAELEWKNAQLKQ
Kind of assay: two-hybrid library CCNG1.

B1: 4H370-bH (peptide)
chain: DEIQELEKKIEELKRKNWELEKEIQELKR
B1: the interaction score came to 0.649 with 4H370-bH; 0.858 in the assay with 4H3782-bH; 0.946 with 4H3843-bH; 0.0634 in the assay with 4H4001-bH; 0.842 in the assay with 4H462-bH; 0.618 with 4H568-bH. Further, the interaction score in the assay with 4H607-bH was -0.999; in the assay with 4H687-bA, 0.534; in the assay with 4H687-bH, -1.39; with 4H72-bH it was -0.56; with 4H797-bH, 0.396; with 4H883-bH, -0.56. Further, the results for the interaction score with 4H918-bH, with 4H953-bH and with 4H967-bH were -0.0355, 0.739 and 0.239, respectively.

B2: O7-bS (peptide)
chain: DKISQLKQKNSELKQKISELKWENSQLEQ
Consider B2, for which the interaction score is -1.01 with O7-bS, 0.93 in the assay with O8-bS and -1.07 with O9-bS.

B3: 4H3297-bH (peptide)
chain: DKNQELEKENEELKRKIWELEKEIQELER
Regarding B3, the interaction score in the assay with 4H3297-bH is 0.885; with 4H3364-bH, -0.362; in the assay with 4H3381-bH, -0.113; with 4H349-bH, -0.0353; with 4H370-bH, 0.804; with 4H56-bH it was -1.32. Further, the interaction score with 4H730-bH was -0.0968; with 4H796-bH, -0.673; with 4H932-bH it was -0.844; with 4H949-bH it was -1.66.

B4: O7 (peptide)
chain: KIAALKAKNAALKYKIAALKAENAALEG
For B4, the interaction score with O7 was -2.81; with O8, 1.47; in the assay with O9, -2.77.

B5: P10-AA (peptide)
chain: DKNAALKAENAALEAKIAALKAKIAALKG
B5: the interaction score was -0.869 with P10-AA; 1.43 in the assay with P11-AA (mean of both orientations); -1.23 with P12-AA (mean of both orientations); -1.38 with P2-AA; -0.118 in the assay with P3-AA; -1.35 with P4-AA. Also, the interaction score with P7-AA is -0.0691; with P8-AA, -1.28; with P9-AA, 2.32; in the assay with zCON9_A (mean of both orientations) it was -1.58; in the assay with zCON9_B, -0.0248; with zCON9_D it was -1.97.

B6: P12-AA (peptide)
chain: DKNAALKAKIAALKAKIAALKAENAALEG
For the molecule B6, the interaction score with P12-AA is -1.64; in the assay with P2-AA, -1.74; in the assay with P3-AA, 1.42; with P4-AA, -1.68; in the assay with P7-AA it was -1.45; with P8-AA, -1.95. For the same molecule, the interaction score is 0.219 in the assay with P9-AA, -1.73 with zCON9_A, 0.333 with zCON9_B and -2.06 with zCON9_D (mean of both orientations).

B7: 4H346-bA (peptide)
chain: DEIAQLEQKIAELKQENAELKWEIAQLKQ
On to B7, for which the interaction score with 4H346-bA is 1.48; in the assay with 4H3926-bA, 1.57; with 4H4073-bA, -0.388; with 4H457-bA, -0.833; in the assay with 4H575-bA, -0.114; with 4H683-bA, 0.357. For the same molecule, the interaction score in the assay with 4H754-bA was -0.388; with 4H780-bA it was -0.692; with 4H797-bA, -0.562; with 4H855-bA, 0.0345; in the assay with 4H918-bA it was -0.428; with 4H953-bA it was -1.6. In the assay with 4H968-bA, this molecule returned an interaction score of -0.648.

B8: P11-AA (peptide)
chain: DENAALEAEIAALEAEIAALEAKNAALKG
For the molecule B8, the interaction score was -1.19 with P11-AA; 1.97 with P12-AA (mean of both orientations); 0.243 in the assay with P2-AA; -1.5 with P3-AA; 1.68 with P4-AA; -1.07 with P7-AA. Moreover, the interaction score with P8-AA is -1.23; with P9-AA, -1.18; with zCON9_A it was -1.48; with zCON9_B, -0.891; in the assay with zCON9_D it was -1.93.
